From paper PMC9351184, “Survey of the binding preferences of RNA-binding proteins to RNA editing events” come the findings set out here.

The target of this data set is ILF3 dsRBD;hnRNPC dsRBD (Homo sapiens;Homo sapiens, UniProt Q12906;P07910 398-590;16-57, |). Briefly: EMSA; both proteins pooled; simultaneous binding; 1 uM labelled RNA, 3 uM protein, 10 ul, on ice 45 min; 6% PAGE in 0.5x TBE (gel pre-run at 4 C); binding buffer, salt and pH not stated (proteins dialyzed in 25 mM Tris-HCl pH 8.0, 150 mM NaCl; final elution from cation exchange/heparin up to 1 M NaCl, then SEC). Conditions: protein: recombinant;recombinant, tags: N-terminal GST (pGood6p), removed with TEV;10xHis (pSUMOH10), label: 5' DY781.

For the molecule AGUGGCUUAUGCCUGUGAUCCCAACAC (ssRNA, A-to-I editing site represented by G as printed (A/G); inosine not stated) [edited RNA], the binding result is reported as “binds”.
